Test [1] concerns the target T1, human CEACAM1-Fc fusion protein (UniProt P13688 35-428).
T1 chain: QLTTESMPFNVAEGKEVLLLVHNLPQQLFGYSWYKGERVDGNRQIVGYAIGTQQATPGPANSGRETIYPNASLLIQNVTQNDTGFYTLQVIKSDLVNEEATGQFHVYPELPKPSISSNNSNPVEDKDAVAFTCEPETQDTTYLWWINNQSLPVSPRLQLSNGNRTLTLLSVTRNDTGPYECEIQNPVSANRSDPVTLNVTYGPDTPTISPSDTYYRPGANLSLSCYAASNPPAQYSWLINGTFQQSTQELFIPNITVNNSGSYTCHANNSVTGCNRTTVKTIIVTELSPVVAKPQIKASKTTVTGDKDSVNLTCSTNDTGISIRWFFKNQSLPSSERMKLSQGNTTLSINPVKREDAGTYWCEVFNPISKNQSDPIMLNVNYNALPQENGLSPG
The experiment in a line: BLI. Background: Biolayer interferometry detects binding as a change in optical thickness at a sensor tip.

Test [2] has as its target T1, human CEACAM1-Fc fusion protein. Put plainly: ELISA.
Another test deals with CC1-N-Fc. Put plainly: ELISA.
Another test addresses recHopQ (Helicobacter pylori). Put plainly: BLI.

The Kd is the concentration at which binding is half-saturated. A lower Kd goes with tighter binding. As usually defined, the IC50 is the midpoint of a concentration-inhibition curve. Lower therefore signals higher potency.

B1: CC1/3/5-Sab (antibody, V domains shown)
VH: EVQLQQSGPELVKPGTSVKMSCKASGYTFTTYVMHWVQQKPGQGLDWIGFFNPYNDGTKYNEKFKGKATLTSDKSSSTAYMELSSLTSEDSAVYYCARWAYDGSYAYWGQGTTLTVSS
VL: DIQMTQSSSYLSVFLGGRVTITCKASDHINNWLAWYQQKPGNAPRLLISGATSLETGVPSRFSGSGSGKDYTLSIISLQTEDVATYYCQQYWRTPFTFGSGTKLEIK
Consider B1, for which the Kd in test [1] was found to be 54 nM. Besides, the IC50 in test [2] is 0.146 nM.

B2: mAb CC1/3/5-Sab (antibody, V domains shown)
VH: EVQLQQSGPELVKPGTSVKMSCKASGYTFTTYVMHWVQQKPGQGLDWIGFFNPYNDGTKYNEKFKGKATLTSDKSSSTAYMELSSLTSEDSAVYYCARWAYDGSYAYWGQGTTLTVSS
VL: DIQMTQSSSYLSVFLGGRVTITCKASDHINNWLAWYQQKPGNAPRLLISGATSLETGVPSRFSGSGSGKDYTLSIISLQTEDVATYYCQQYWRTPFTFGSGTKLEIK
Take B2: the IC50 in the test with CC1-N-Fc amounted to 0.107 nM.

B3: CEACAM1-Fc (Fc fusion)
chain: QLTTESMPFNVAEGKEVLLLVHNLPQQLFGYSWYKGERVDGNRQIVGYAIGTQQATPGPANSGRETIYPNASLLIQNVTQNDTGFYTLQVIKSDLVNEEATGQFHVYPELPKPSISSNNSNPVEDKDAVAFTCEPETQDTTYLWWINNQSLPVSPRLQLSNGNRTLTLLSVTRNDTGPYECEIQNPVSANRSDPVTLNVTYGPDTPTISPSDTYYRPGANLSLSCYAASNPPAQYSWLINGTFQQSTQELFIPNITVNNSGSYTCHANNSVTGCNRTTVKTIIVTELSPVVAKPQIKASKTTVTGDKDSVNLTCSTNDTGISIRWFFKNQSLPSSERMKLSQGNTTLSINPVKREDAGTYWCEVFNPISKNQSDPIMLNVNYNALPQENGLSPG
Molecule B3 gave a Kd with recHopQ of 183 nM.

The values are drawn from patent US20230295338A1 (published 2023).
